Experimental data published in paper PMC4498735, “Fibulin-1C, C1 Esterase Inhibitor and Glucose Regulated Protein 75 Interact with the CREC Proteins, Calumenin and Reticulocalbin” (PLoS ONE, 2015).
Each block holds one binder with its values, some of them ahead of it.

Experiments:
Settings in all cases: both partners purified
[1] = target: T1, GST-fibulin-1C (UniProt P23142-4 33-683); assay: SPR; Biacore 2000/3000, CM5 chip, calumenin, GST-calumenin, reticulocalbin or GST amine-coupled; 25°C; 10 mM HEPES, 150 mM NaCl, 5 mM CaCl2, 1 mM EGTA, 0.005% Tween 20, pH 7.4; 1:1 Langmuir model; apparent KD from koff/kon
T1 construct: fibulin-1C, amino acids 33-683, cloned into pGEX-4T3; the C variant has 683 amino acids; also called recombinant GST-fibulin-1C; source: E. coli, purified (glutathione-sepharose, Superdex 200)
T1 sequence (looked up): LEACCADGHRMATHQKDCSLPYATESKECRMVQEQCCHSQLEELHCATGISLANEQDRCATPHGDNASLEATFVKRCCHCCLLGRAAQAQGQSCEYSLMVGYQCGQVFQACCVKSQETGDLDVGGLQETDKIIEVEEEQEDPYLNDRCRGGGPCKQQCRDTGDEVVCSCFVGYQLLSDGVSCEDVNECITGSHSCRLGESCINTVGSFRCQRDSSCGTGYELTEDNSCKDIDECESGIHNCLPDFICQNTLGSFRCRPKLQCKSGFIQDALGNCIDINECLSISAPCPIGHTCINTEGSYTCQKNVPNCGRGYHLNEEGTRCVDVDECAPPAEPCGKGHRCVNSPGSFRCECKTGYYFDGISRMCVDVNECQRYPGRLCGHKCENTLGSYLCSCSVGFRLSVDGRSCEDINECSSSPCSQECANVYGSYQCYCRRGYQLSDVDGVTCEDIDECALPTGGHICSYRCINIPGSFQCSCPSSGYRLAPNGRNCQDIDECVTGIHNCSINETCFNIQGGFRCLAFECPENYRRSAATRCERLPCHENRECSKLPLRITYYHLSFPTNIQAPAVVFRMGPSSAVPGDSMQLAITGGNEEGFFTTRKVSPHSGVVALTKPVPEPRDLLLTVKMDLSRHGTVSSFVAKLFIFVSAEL

[2] = target: T2, C1 esterase inhibitor (commercial, Calbiochem) (UniProt P05155 23-500); assay: as above
T2 construct: source: bought: Calbiochem
T2 sequence (looked up): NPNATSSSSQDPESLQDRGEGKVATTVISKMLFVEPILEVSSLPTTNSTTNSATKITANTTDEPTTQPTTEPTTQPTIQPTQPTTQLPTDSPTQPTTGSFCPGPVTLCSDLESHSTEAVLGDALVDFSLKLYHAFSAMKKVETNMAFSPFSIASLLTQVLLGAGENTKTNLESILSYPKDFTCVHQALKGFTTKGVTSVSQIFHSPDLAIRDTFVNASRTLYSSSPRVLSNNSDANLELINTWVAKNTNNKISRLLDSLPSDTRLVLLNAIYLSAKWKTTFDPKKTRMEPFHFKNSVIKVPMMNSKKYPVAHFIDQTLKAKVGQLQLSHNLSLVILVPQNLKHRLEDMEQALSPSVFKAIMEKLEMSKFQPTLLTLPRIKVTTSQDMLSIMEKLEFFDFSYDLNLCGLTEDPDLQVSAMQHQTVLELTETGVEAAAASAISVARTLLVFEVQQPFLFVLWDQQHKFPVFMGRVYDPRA

[3] = target: T3, recombinant GST-grp75 (AAH00478.1) (human, UniProt P38646 47-679); assay: as above
T3 construct: also called glucose regulated protein 75; mortalin; source: bought: Abnova (Taipei, Taiwan)

[4] = target: T1, GST-fibulin-1C; assay: SPR; reticulocalbin immobilised; buffer with EDTA (10 mM Hepes, 150 mM NaCl, 20 mM EDTA and 0.005% Tween 20 pH 7.4)

T3 sequence (P38646 47-679): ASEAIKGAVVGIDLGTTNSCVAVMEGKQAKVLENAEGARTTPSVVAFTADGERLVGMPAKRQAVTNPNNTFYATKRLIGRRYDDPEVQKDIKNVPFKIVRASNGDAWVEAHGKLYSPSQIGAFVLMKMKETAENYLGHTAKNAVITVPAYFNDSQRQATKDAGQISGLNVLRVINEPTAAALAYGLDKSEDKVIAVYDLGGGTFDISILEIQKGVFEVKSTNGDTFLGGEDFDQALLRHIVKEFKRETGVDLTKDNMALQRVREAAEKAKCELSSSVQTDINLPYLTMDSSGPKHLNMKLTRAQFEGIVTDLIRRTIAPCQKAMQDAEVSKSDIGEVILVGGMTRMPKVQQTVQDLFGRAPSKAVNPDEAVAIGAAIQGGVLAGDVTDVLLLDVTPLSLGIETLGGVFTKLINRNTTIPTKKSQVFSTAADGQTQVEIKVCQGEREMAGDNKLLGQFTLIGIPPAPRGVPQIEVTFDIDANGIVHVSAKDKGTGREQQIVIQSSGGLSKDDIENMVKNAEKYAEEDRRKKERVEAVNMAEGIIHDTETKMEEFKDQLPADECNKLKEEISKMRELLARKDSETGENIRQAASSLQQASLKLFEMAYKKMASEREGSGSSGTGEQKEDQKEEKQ

- Kd [1]: ~50 nM
- Kd [2]: ~150 nM
B1: GST-calumenin (natural protein, UniProt O43852 20-315, looked up)
chain: KPTEKKDRVHHEPQLSDKVHNDAQSFDYDHDAFLGAEEAKTFDQLTPEESKERLGKIVSKIDGDKDGFVTVDELKDWIKFAQKRWIYEDVERQWKGHDLNEDGLVSWEEYKNATYGYVLDDPDPDDGFNYKQMMVRDERRFKMADKDGDLIATKEEFTAFLHPEEYDYMKDIVVQETMEDIDKNADGFIDLEEYIGDMYSHDGNTDEPEWVKTEREQFVEFRDKNRDGKMDKEETKDWILPSDYDHAEAEARHLVYESDQNKDGKLTKEEIVDKYDLFVGSQATDFGEALVRHDEF
notes: source: E. coli, purified (glutathione-sepharose, Superdex 200)

- Kd [3]: ~7 nM
B2: recombinant calumenin (immobilised; construct not told) (natural protein, UniProt O43852 20-315, looked up)
chain: B1 chain
notes: calumenin; also called immobilised calumenin; source: E. coli, purified

- Kd [3]: ~3 nM
- Kd [1]: ~60 nM
- Kd [2]: ~1000 nM
- Kd [4]: ~50 nM
B3: recombinant reticulocalbin (natural protein)
chain: KPTVRKERVVRPDSELGERPPEDNQSFQYDHEAFLGKEDSKTFDQLSPDESKERLGKIVDRIDSDGDGLVTTEELKLWIKRVQKRYIYDNVAKVWKDYDRDKDEKISWEEYKQATYGYYLGNPAEFHDSSDHHTFKKMLPRDERRFKASDLDGDLTATREEFTAFLHPEEFEHMKEIVVLETLEDIDKNGDGFVDQDEYIADMFSHEDNGPEPDWVLSEREQFNDFRDLNKDGKLDKDEIRHWILPQDYDHAQAEARHLVYESDKNKDEMLTKEEILDNWNMFVGSQATNYGEDLTKNHDEL
modifications: Expressed in E. coli as a GST fusion; GST removed with thrombin. Species and limits are not printed: mouse is inferred because the plasmid came from Dr. Ozawa, whose original reticulocalbin clone was
